B1: Selenomethionine-labeled TakP from Rhodobacter sphaeroides (natural protein, Rhodobacter sphaeroides 2.4.1)
chain: QSAPKVTWRLASSFPKSLDTIFGGAEVLSKMLSEATDGNFQIQVFSAGELVPGLQAADAVTEGTVECCHTVGYYYWGKDPTFALAAAVPFSLSARGINAWHYHGGGIDLYNEFLSQHNIVAFPGGNTGVQMGGWFRREINTVADMQGLKMRVGGFAGKVMERLGVVPQQIAGGDIYPALEKGTIDATEWVGPYDDEKLGFFKVAPYYYYPGWWEGGPTVHFMFNKSAYEGLTPTYQSLLRTACHAADANMLQLYDWKNPTAIKSLVAQGTQLRPFSPEILQACFEAANEVYAEMEASNPAFKKIWDSIKAFRSEHYTWAQIAEYNYDTFMMVQQNAGKL
modifications: selenomethionine (SeMet) labeled
notes: TakP (previously named SmoM), Rhodobacter sphaeroides 2.4.1; same construct as m1 (pET101/D-TOPO, 1099 bp fragment), labeled with selenomethionine; final model holds four molecules from residue 28 or 32 to 365; Same construct as m1, with methionines replaced by selenomethionine; used for the unliganded MAD structure (PDB 2HZK); also called SeMet TakP; selenomethionine labeled protein; source: E. …
B2: TakP (TRAP transporter alpha-keto acid binding P subunit) from Rhodobacter sphaeroides (natural protein, Rhodobacter sphaeroides 2.4.1)
chain: B1 chain
notes: TakP (previously named SmoM), extracytoplasmic solute receptor (P subunit) of a TRAP transporter, Rhodobacter sphaeroides 2.4.1; gene amplified from genomic DNA as a 1099 bp fragment and cloned into pET101/D-TOPO; crystal models span residues 28 or 32 to 365; The 1099 bp fragment would fit the whole gene of 365 codons, so the signal peptide may be in the construct; The theoretical molecular …

Columns and labels:
[1] = biological target: the molecule itself; experiment: crystal structure; unliganded SeMet TakP, space group P2(1), four molecules in the asymmetric unit; hanging drop, 293 K, 100 mM sodium citrate pH 5.8-6.0, 1.4-1.6 M ammonium sulfate; solved by MAD
[2] = biological target: the molecule itself; experiment: SEC; gel filtration on Superdex 200 26/60 in 20 mM Tris HCl pH 8.0, 50 mM NaCl, calibrated with commercial standards
[3] = biological target: the molecule itself; experiment: cross-linking; 3.2 and 6.3 μM TakP with 50 mM glutaraldehyde, 20 mM Na2HPO4/KH2PO4 pH 7.8, 18°C, 3 hours; denaturing 10% Nu-PAGE gel; dimer to monomers

Protein | binding result [1] | stoichiometry N [2] | Kd [3] [nM]
B1 | binds | – | –
B2 | – | 2 | < 300

— PMC1839085, “Crystal structures of an Extracytoplasmic Solute Receptor from a TRAP transporter in its open and closed forms reveal a helix-swapped dimer requiring a cation for α-keto acid binding” (BMC Structural Biology, 2007)
